The DeepSol protein solubility set

experiment: soluble on expression in E. coli; label from the status in PepcDB or PDB records

| Sequence | soluble on expression in E. coli |
| --- | --- |
| MLEDDFGREVSGVRVSLTDRCNFDCVYCHNEGLGDTRGPMEAQDDELTADTIVAFLEVAAEFGVDSVKFTGGEPMLREDLEEIVRRAPDEMEVSMTTNGTFLPGRAPDLVDAGLERVNVSQDALDSEAFAELTQSGAYDRVLEGVEAALDAGLEPVKLNMVVFEPTAGYVPKMVDHVAENPGLQLQLIEYMPELAGHPEWAIDIDRVHDWLEDRADKVEHREMHDRKRYWMHSGEAAVEGDSASTSLAASDGGIRTEPVNNHNSGMVEIVDPVGNENFCANCHRVRLTHDGYLKGCLNRNDDLRDIGTTKESMRAAFRETVDTRVPYYGEYMIETEDGEWEINEEYIDTDGDRAPYEYSE | not soluble |
| MGSDKIHHHHHHMAYLDNIAVFVRVVELGNLSAAGRDMRISPAVASNRIKELEKHLGVRLFNRTTRQLMPTEHGTVFYSGAKQVLEAITEAEAAVSALSGQPRGTIRVTAPLGLGRRLVASGIPDFHDKYPDIEVRLRLSDHNVDIMKEGIDVAFRLGIIEDSSLRMRGIMECERVLVAAPKYLEARGEPAEPQELIGKKHDCLMLRYSGAREYVWTLQTPTGPQKFEVHGPYDTDDGDVLTGWALSGRGIINKPRFEVEPFIRDRRLQVILANTPPTPVQFAAVYPHKKLQDPKVRLLLDFMAERCQRLIKDILAGK | not soluble |
| GTAGKVIKCKAAVLWEQKQPFSIEEIEVAPPKTKEVRIKILATGICRTDDHVIKGTMVSKFPVIVGHEATGIVESIGEGVTTVKPGDKVIPLFLPQCRECNACRNPDGNLCIRSDITGRGVLADGTTRFTCKGKPVHHFMNTSTFTEYTVVDESSVAKIDDAAPPEKVCLIGCGFSTGYGAAVKTGKVKPGSTCVVFGLGGVGLSVIMGCKSAGASRIIGIDLNKDKFEKAMAVGATECISPKDSTKPISEVLSEMTGNNVGYTFEVIGHLETMIDALASCHMNYGTSVVVGVPPSAKMLTYDPMLLFTGRTWKGCVFGGLKSRDDVPKLVTEFLAKKFDLDQLITHVLPFKKISEGFELLNSGQSIRTVLTF | soluble |
| MKITDLRCAVIGKHPIVRIVTDEGLHGLGEVEFTKTYLKPFVLHFREALIGEDPTDVERVMLKIRQRGSFKPYGAAVSAIEHALWDIAGKAAGVPVYKLLGGKVRDKVRVYNGSIRRKRAGDRPEDYAADVKWMMEQPQNFFMVKQGISFHSNMKDSIEGFHYGVTQKKAGYHGAMDQGVISERGFNHMLDCVIAMKEVLGDKVSLALDCGPGWMLPDAIKFARAVEKYNLMWLEDMLTGDYVPWVNPQAYRELTTSTSTPIHTGEQIYLRHNFKELIETQAVRVIGPDPADIGGIAELKWVAEHAYMHSILMAPHGTANGLLGLGALINVCATLPANYVAFEYPSASDPWWEDLVIGLPAQIVRDSMVDLLEAPGLGLDIDAEAARKYLGEEDAGFFD | not soluble |
| TPMYESTSELYVLSKSTSITSLADIQTGTSLTNDYIVVVKGRPVLDQVIENLNLNESYKTLGGRVTLDNPSNSRVLNITVTDPDPQMAKTIADEIAKVASAYIAEKMKQDPPTIIQSGYDDGGAVSPNIGKNT | not soluble |
| MPDNLSAIFGTILDYAEEVAAGTSNENDERPPRTSLTKKQQKAVSILRNFSTNDQKQEISFQELSQNVLDDWDISNIKSSSVQQLVELLNLPRVQGVLWAAQEISAGRFAPQLPDVPFEVDEDDGVAVKIVRIVRRGEPLGATIKCERGKVYVARIMANGVADRSGCIQEGDRVLEVNGITVADKEPREIVKLLDKCDNGIITFKLIPAEINQKLKQKKSSHRYARALFDYDPWQDKRHPCPEAAISFRGGDILEILDEKDQYWWQTRKIGFGALARRKESHDDENRDDSKKVGLVPSEWLQCQSEIPENGIDTSDDFQSFLENHKGRFYESVFRWRNKKKRRRVVVLLGAPGVGRNEIRRQFFKVFADRFTNAIPHTSRPQRPNESDGVNYYFTSRSEMERMIERKEMLEYGEFRDNLYGTALKSVRKASEKGTVLLTPHPLAIENIRTWEFAPIVIFVQPPEFGEFKHTREVYRSQTTRSHSAASSSNISQNTAATSAARAFSDVEIRQIIDNSAQMEQKYRGYCDAIIRNVDLDTTMNELTGLIYQLESKATWMPMKWLDDIGE | not soluble |
| MLEFETNIDGLASIKVIGVGGGGNNAVNRMIENEVQGVEYIAVNTDAQALNLSKAEVKMQIGAKLTRGLGAGANPEVGKKAAEESKEQIEEALKGADMVFVTAGMGGGTGTGAAPVIAQIAKDLGALTVGVVTRPFTFEGRKRQLQAAGGISAMKEAVDTLIVIPNDRILEIVDKNTPMLEAFREADNVLRQGVQGISDLIATPGLINLDFADVKTIMSNKGSALMGIGIATGENRAAEAAKKAISSPLLEAAIDGAQGVLMNITGGTNLSLYEVQEAADIVASASDQDVNMIFGSVINENLKDEIVVTVIATGFIEQEKDVTKPQRPSLNQSIKTHNQSVPKRDAKREEPQQQNTVSRHTSQPADDTLDIPTFLRNRNKRG | soluble |
| MKIFLENLYHSDCYFLPIRDNQQVLVGVELITHFSSEDGTVRIPTSRVIAQLTEEQHWQLFSEQLELLKSCQHFFIQHKLFAWLNLTPQVATLLLERDNYAGELLKYPFIELLINENYPHLNEGKDNRGLLSLSQVYPLVLGNLGAGNSTMKAVFDGLFTRVMLDKSFIQQQITHRSFEPFIRAIQAQISPCCNCIIAGGIDTAEILAQITPFDFHALQGCLWPAVPINQITTLVQR | not soluble |
| MKNMLPAYIKIHDQIKKDIDEYRWAIGERLPSERDLAEQFAVSRMTLRQAVSLLVEEGVLERRVGSGTFVSSTRVQEKMRGTTSFTEIVKSQGKVPSSQLISYKKTIPNEQEVAKLGIFPTDNIIRMERVRYADQVPLVYEVASIPEKFIKDFKKEEITSHFFQTLQKHGYRIGKSQQTIYARLAKEKIAHYLEVEKGHAILGLTQVSYLEDGTAFEYVKSQYVGERFEFYLENN | not soluble |
| MAEQRWTGQLDLTVFNNGQSSKARNIFFEKALKVLRPIYLEQSPVPTFYIVNVGGGYLDGDRYRVNVNLEDNAQVTLTSQGATKIYKTPNDHVEQYQTFNLSNQSYMEFVADPIIAYENAKFFQHNTFNLKEDSAMFYTDILTPGYSSNGQDFTYNYMHLINEIYIDNQLVVFDNMMLSPDKSRLDGIGYMENYTHLGSAYFIHPDVNQSFIDDIYAAVADFQKQYDCRIGISQLPTHGLAVRILTKRTQIIEEILTRVQSYINQTIYHRQINFLRKYLEHHHHHH | not soluble |
| MSLQEKNFSEEEIDDALSRCQAKNWQSDRRFSENYLNSRVQKGYGVGRIRQELRQLKGVSSDIIDEVLMESEIDWYEMAENLLRKKFPNYNEQQTPKMKQKIWQYMLSHGFRSDEFADLIGQNQSEWDEGHHHHHH | soluble |
| MSLIREAQRSELPAILELWLESTTWGHPFIKANYWRDCIPLVRDAYLANAQNWVWEEDGKLLGFVSIMEGRFLAAMFVAPKAVRRGIGKALMQYVQQRHPHLMLEVYQKNQPAINFYQAQGFHIVDCAWQDETQLPTWIMSWPVVQTLEGGSHHHHHH | soluble |
| TSALIERIDAIIVDLPTIRPHKLAMHTMQQQTLVVLRVRCSDGVEGIGEATTIGGLAYGYESPEGIKANIDAHLAPALIGLAADNINAAMLKLDALAKGNTFAKSGIESALLDAQGKRLGLPVSELLGGRVRDSLEVAWTLASGDTARDIAEARHMLEIRRHRVFKLKIGANPVEQNLKHVVTIKRELGDSASVRVDVNQYWDESQAIRACQVLGDNGIDLIEQPISRINRGGQVRLNQRTPAPIMADESIESVEDAFSLAADGAASIFALKIAKNGGPRAVLRTAQIAEAAGIGLYGGTMLEGSIGTLASAHAFLTLRQLTWGTELFGPLLLTEEIVNEPPQYRDFQLHIPRTPGLGLTLDEARLARFARR | soluble |
| MGSDKIHHHHHHMKTLCTHSLPKEKMPYLLRSGEGERYLFGRQVATVMANGRSTGDLFEIVLLSGGKGDAFPLHVHKDTHEGILVLDGKLELTLDGERYLLISGDYANIPAGTPHSYRMQSHRTRLVSYTMKGNVAHLYSVIGNPYDHAEHPPYASEEVSNERFAEAAAVADIVFLDEAKPACSAKLAELTELPDGAVPYVLESGEGDRLLTGDQLHRIVAAQKNTDGQFIVVSSEGPKGDRIVDHYHEYHTETFYCLEGQMTMWTDGQEIQLNPGDFLHVPANTVHSYRLDSHYTKMVGVLVPGLFEPFFRTLGDPYEGHIFPCEPQALRFDRILQNIEALDLKVMKP | not soluble |
